This is an account of results in US20090226415A1, “MODIFIED TRIDEGINS, PRODUCTION AND USE THEREOF AS TRANSGLUTAMINASE INHIBITORS” (priority 2001, published 2009).

The target of data set [1] is T1, factor XIIIa (Homo sapiens, UniProt P00488).
T1 sequence (P00488 39-732 limits assumed): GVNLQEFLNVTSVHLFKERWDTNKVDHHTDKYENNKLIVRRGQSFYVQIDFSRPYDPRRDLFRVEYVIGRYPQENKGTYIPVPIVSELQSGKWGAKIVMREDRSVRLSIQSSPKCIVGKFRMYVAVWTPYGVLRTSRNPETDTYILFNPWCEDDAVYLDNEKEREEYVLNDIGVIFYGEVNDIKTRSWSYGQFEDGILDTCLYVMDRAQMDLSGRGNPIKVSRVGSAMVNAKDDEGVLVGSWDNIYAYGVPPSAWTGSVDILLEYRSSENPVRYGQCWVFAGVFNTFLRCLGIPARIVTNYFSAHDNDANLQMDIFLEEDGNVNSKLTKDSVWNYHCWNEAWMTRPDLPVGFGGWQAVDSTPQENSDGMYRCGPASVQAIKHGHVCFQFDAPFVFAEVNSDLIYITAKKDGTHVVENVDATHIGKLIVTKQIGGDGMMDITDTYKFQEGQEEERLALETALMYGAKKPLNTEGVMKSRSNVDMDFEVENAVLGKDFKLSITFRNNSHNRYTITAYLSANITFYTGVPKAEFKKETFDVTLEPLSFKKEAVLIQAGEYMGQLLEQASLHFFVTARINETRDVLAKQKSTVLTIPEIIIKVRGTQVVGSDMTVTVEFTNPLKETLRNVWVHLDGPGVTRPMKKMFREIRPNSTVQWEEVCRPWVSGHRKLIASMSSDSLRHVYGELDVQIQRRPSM
The settings on record: Table 1, published inhibitors of factor XIIIa; read-out: Affinity (IC50); cited from earlier work.

Data set [2] deals with T1, factor XIIIa. Nature of the data set: biochemical. The class given is biochemical. The settings on record: for Relative inhibitory effect (%): final variant concentration 5.45 μM. Here is the method:
The assay is based on factor XIII being activated to form factor XIIIa by thrombin which is present in the reagents. Factor XIIIa links a specific peptide substrate to glycine ethyl ester with ammonium ions being released. The latter are determined in an enzyme reaction which proceeds in parallel. The extinction at 340 nm was used to measure the decrease in NADH. For the measurement, peptides were present in 50% acetonitrile in a stock concentration of 5 mM. The NADH and detection reagents which were supplied by the manufacturer were dissolved in 3 ml of water, with the activator reagent subsequently being dissolved in 3 ml of NADH reagent. For use, the activator and detection reagents were mixed in a ratio of 1:1. In order to carry out the measurement in microtiter plate format, 100 μl of sample (inhibitor or control buffer), 25 μl of factor XIII (10 U/ml) and 150 μl of working reagent were mixed. The measurement was carried out continuously for 20 min at 340 nm, and at 37° C., in a microtiter plate photometer. For the evaluation, the differences in the values measured after 16 and 20 min were compared.
The relative inhibitory effect (%) was determined at a final variant concentration of 5.45 μM. The inhibitory effect of the recombinant tridegin polypeptide was normalized to 100% (at 5.45 μM).
The above-described Berichrom® assay was used to determine the relative inhibitory effect (%) at a final concentration of the peptides of 7.27 μM. The inhibitory effect of the recombinant tridegin polypeptide, at a final concentration of 7.27 μM, was normalized to 100%.
The relative inhibitory effect (%) was determined at a final variant concentration of 5.45 μM. The inhibitory effect of the recombinant wild-type tridegin poly-peptide (at 5.45 μM) was normalized to 100%. The oligonucleotides which were used to produce the abovementioned variants are also specified in the table.

In the next data set the test system is whole citrate blood. Nature of the data set: Thrombelastography (ROTEG) of coagulation and fibrinolysis in whole citrate blood. On the set-up: species or system human. The text has this: To do this, what are termed thrombelasto-grams were plotted. Thrombelastography is a current method for measuring coagulation and fibrinolysis. The method measures the change in the viscosity of the blood by the change in the resistance to rotation of a plunger which is present in the blood (Calatzis et al., 2000). […] Thrombelastograms quantify important parameters of haemostasis: • clotting time (time between the initiation of coagulation and the beginning of a measurable change in the viscosity of the blood, CT) • stability of the thrombus (maximum amplitude, maximum clot firmness, MCF) • fibrinolysis time (time between the beginning of a measurable change in blood viscosity and achievement of the starting value prior to the clotting, lysis time, LT).
The ROTEG® instrument supplied by Pentapharm GmbH, Munich, was used for the measurements which are shown. FIGS. 5 and 6 show the thrombelastograms of whole citrate blood after the addition of Ca^2+ (Starteg reagent, from Pentapharm GmbH) and thromboplastin phospholipid (Integ reagent, from Pentapharm GmbH). These reagents are used to induce coagulation. […] This is made clear by […]

Data set [3] is described as follows: Analytical gel filtration run for multimeric, high molecular weight aggregates. It counts as physicochemical. The settings on record: 20 mM sodium phosphate, pH 8.0, 300 mM NaCl. The text has this: These modified tridegins were produced by site-directed mutagenesis of the cysteines present in the wild-type tridegin. The aim of this mutagenesis was to replace, in a step-wise manner, the cysteine residues which are suitable for forming intermolecular disulfide bridges. The tendency to form disulfide bridges, and the aggregation of the end product which accompanies it, were detected by carrying out appropriate chromatographic analyses of the original transglutaminase inhibitor (SEQ ID No. 1) in the presence or absence of reducing agents (e.g. mercaptoethanol and DTT). Thus, in one gel filtration run (on an Amersham-Pharmacia HiPrep 26/60 Sephacryl S200 HR column; 20 mM sodium phosphate, pH 8.0, 300 mM NaCl; 1 ml/min) the purified, recombinant tridegin polypeptide had approximately an 80% content of multimeric, high molecular weight aggregates.

[4] abbreviates: Table 4, Cys variants, wild-type tridegin polypeptide normalized to 100%.

Like-named read-outs stand apart in the source and are kept apart here. Some results are limits rather than exact numbers.

What is called IC50 is the concentration that gives 50% inhibition. As for `C[C@@H]1CCC/C=C\C(=O)Cc2cc(O)cc(O)c2C(=O)O1` [ZG-1400], at factor XIIIa [1], the IC50 was 5.7 µM.
On to `C/C=C/C/C=C/CCC(=O)[C@H]1O[C@H]1C(N)=O` [Cerulenin], for which the IC50 at factor XIIIa [1] is 29 µM.

B1: SEQ ID No. 1: recombinant wild-type tridegin polypeptide expressed in and purified from Escherichia coli (protein)
chain: MKLLPCKEWHQGIPNPRCWCGADLECAQDQYCAFIPQCRPRSELIKPMDDIYQRPVEFPNLPLKPREE
Consider B1, for which the “Relative inhibitory effect (%)” value with factor XIIIa [2] (Table 2, recombinant tridegin polypeptide normalized to 100%) was determined as 100%; in the data set with factor XIIIa [2] (setting [4]), 100%. Further, the IC50 with factor XIIIa [2] (purified recombinant tridegin polypeptide from Escherichia coli, FIG. 3) lay in the range of 2 to 4 µM. Further, the “clotting time (CT)” value in the data set on whole citrate blood (FIG. 5 A and B, 190 seconds in the absence of inhibitor) stood at 380 s. Also, the “effect on fibrinolysis brought about by tPA and urokinase” value in the data set on whole citrate blood (lower amplitude and increased rate of fibrinolysis) is “accelerate and improve the fibrinolysis”. Further, the “content of multimeric, high molecular weight aggregates” value in data set [3] (Sephacryl S200 HR, no reducing agent) is listed as around 80%. In data set [3] (reducing conditions: 1.5 mM DTT), the “content of the aggregates” value is recorded as below 20%.

B2: C26A: tridegin modified by replacement of a cysteine residue, expressed in Escherichia coli (protein)
chain: MKLLPCKEWHQGIPNPRCWCGADLEAAQDQYCAFIPQCRPRSELIKPMDDIYQRPVEFPNLPLKPREE
For B2, the “Relative inhibitory effect (%)” value with factor XIIIa [2] (setting [4]) is recorded as 82%.

B3: C20A: tridegin modified by replacement of a cysteine residue, expressed in Escherichia coli (protein)
chain: MKLLPCKEWHQGIPNPRCWAGADLECAQDQYCAFIPQCRPRSELIKPMDDIYQRPVEFPNLPLKPREE
In the case of B3, the “Relative inhibitory effect (%)” value with factor XIIIa [2] (setting [4]) is listed as 63%.

B4: C26A; +C38A: tridegin modified by replacement of two cysteine residues, expressed in Escherichia coli (protein)
chain: MKLLPCKEWHQGIPNPRCWCGADLEAAQDQYCAFIPQARPRSELIKPMDDIYQRPVEFPNLPLKPREE
On to B4, for which, in the data set with factor XIIIa [2] (setting [4]), the “Relative inhibitory effect (%)” value worked out at 80%.

B5: C32A: tridegin modified by replacement of a cysteine residue, expressed in Escherichia coli (protein)
chain: MKLLPCKEWHQGIPNPRCWCGADLECAQDQYAAFIPQCRPRSELIKPMDDIYQRPVEFPNLPLKPREE
B5: the “Relative inhibitory effect (%)” value with factor XIIIa [2] (setting [4]) worked out at 86%.
